Data from article PMC12218292 (Nature Communications, 2025).

T1: Rad51 (S. cerevisiae), P25454
T1 chain: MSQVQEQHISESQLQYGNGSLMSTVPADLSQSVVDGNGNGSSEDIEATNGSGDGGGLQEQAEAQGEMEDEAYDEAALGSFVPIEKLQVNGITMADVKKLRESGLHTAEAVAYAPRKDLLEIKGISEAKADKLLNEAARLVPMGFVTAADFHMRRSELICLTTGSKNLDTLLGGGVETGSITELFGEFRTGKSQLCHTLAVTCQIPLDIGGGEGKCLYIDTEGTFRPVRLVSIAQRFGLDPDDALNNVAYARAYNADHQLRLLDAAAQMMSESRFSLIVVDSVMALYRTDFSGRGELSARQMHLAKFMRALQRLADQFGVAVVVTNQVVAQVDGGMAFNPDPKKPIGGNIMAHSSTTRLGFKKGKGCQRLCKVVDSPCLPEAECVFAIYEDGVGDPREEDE


Target: Rad51 (in yeast cells) (UniProt P25454)
Experiment: co-immunoprecipitation (co-IP)
Settings: read off a plot

Sequence of Rad52-FLAG (from UniProt P06778) L363 (P06778 whole entry, change not shown): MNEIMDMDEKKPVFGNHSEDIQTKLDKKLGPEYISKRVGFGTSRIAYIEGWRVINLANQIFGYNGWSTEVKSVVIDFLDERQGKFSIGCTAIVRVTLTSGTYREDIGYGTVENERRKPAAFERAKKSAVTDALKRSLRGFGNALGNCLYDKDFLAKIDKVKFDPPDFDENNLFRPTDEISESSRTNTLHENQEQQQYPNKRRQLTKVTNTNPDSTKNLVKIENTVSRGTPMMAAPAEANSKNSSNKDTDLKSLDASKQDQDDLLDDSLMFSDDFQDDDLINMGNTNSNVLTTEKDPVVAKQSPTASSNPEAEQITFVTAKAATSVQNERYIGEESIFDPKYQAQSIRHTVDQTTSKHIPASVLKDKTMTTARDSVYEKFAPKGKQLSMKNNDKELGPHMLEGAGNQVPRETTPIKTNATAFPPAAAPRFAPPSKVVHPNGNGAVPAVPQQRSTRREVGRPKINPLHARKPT
Sequence of Rad52-FLAG (from UniProt P06778) V358E (P06778 whole entry, stated change not applied): as the sequence (P06778 whole entry, change not shown) above
Sequence of Rad52-FLAG (from UniProt P06778) A319 (P06778 whole entry, change not shown): as above
Sequence of Rad52-FLAG (from UniProt P06778) V317 (P06778 whole entry, change not shown): as above
Sequence of Rad52-FLAG (from UniProt P06778) S355 (P06778 whole entry, change not shown): as above
Sequence of Rad52-FLAG (from UniProt P06778) V325 (P06778 whole entry, change not shown): as above
Sequence of Rad52-FLAG (from UniProt P06778) S374 (P06778 whole entry, change not shown): as above
Sequence of Rad52-FLAG (from UniProt P06778) P381 (P06778 whole entry, change not shown): as above
Sequence of Rad52-FLAG (from UniProt P06778) T318 (P06778 whole entry, change not shown): as above
Sequence of Rad52-FLAG (from UniProt P06778) V350 (P06778 whole entry, change not shown): as above

| Molecule | other: interaction loss by coIP (%) |
| --- | --- |
| Rad52-FLAG (from UniProt P06778) S355 | 100% |
| Rad52-FLAG (from UniProt P06778) S374 | 33% |
| Rad52-FLAG (from UniProt P06778) T318 | 97% |
| Rad52-FLAG (from UniProt P06778) V317 | 80% |
| Rad52-FLAG (from UniProt P06778) V350 | 49% |

Now from value to molecule:

| other: interaction loss by coIP (%) | Molecule |
| --- | --- |
| 99% | Rad52-FLAG (from UniProt P06778) A319 |
| 27% | Rad52-FLAG (from UniProt P06778) L363 |
| 79% | Rad52-FLAG (from UniProt P06778) P381 |
| 89% | Rad52-FLAG (from UniProt P06778) V325 |
| 100% | Rad52-FLAG (from UniProt P06778) V358E |

Target: T1, Rad51 (S. cerevisiae), P25454
Experiment: SEC-SAXS; Rad51 + Rad52 (295–408) 1:1; SWING beamline in SEC mode, Superdex 5/150 GL column; peak deconvolution; molecular weight from SAXS
Settings: remark: other sources report otherwise

| Molecule | stoichiometry N |
| --- | --- |
| Rad51 (natural protein, S. cerevisiae, UniProt P25454 1-400, looked up, Oligomeric alone in solution; also called full-length unlabeled Rad51) MSQVQEQHISESQLQYGNGSLMSTVPADLSQSVVDGNGNGSSEDIEATNGSGDGGGLQEQAEAQGEMEDEAYDEAALGSFVPIEKLQVNGITMADVKKLRESGLHTAEAVAYAPRKDLLEIKGISEAKADKLLNEAARLVPMGFVTAADFHMRRSELICLTTGSKNLDTLLGGGVETGSITELFGEFRTGKSQLCHTLAVTCQIPLDIGGGEGKCLYIDTEGTFRPVRLVSIAQRFGLDPDDALNNVAYARAYNADHQLRLLDAAAQMMSESRFSLIVVDSVMALYRTDFSGRGELSARQMHLAKFMRALQRLADQFGVAVVVTNQVVAQVDGGMAFNPDPKKPIGGNIMAHSSTTRLGFKKGKGCQRLCKVVDSPCLPEAECVFAIYEDGVGDPREEDE | 4 |

Target: T2, Rad52 (295–408) (S. cerevisiae, UniProt P06778 295-408, uniform 15N labelling)
T2 construct: numbered from the first AUG codon in RAD52 mRNA (protein of 471 residues); Cloned in pETM30; also called Rad52C-ter; Rad52-Cter; source: E. coli BL21(DE3), purified (GSH-sepharose, TEV cleavage, Ni Sepharose, PD10)
T2 sequence (P06778 295-408): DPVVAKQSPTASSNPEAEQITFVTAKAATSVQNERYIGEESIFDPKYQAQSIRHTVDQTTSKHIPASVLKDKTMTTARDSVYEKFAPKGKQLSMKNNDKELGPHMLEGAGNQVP
Experiment: as above
Settings: both partners purified

| Molecule | stoichiometry N |
| --- | --- |
| Rad51 (natural protein, S. cerevisiae, UniProt P25454 1-400, looked up, Oligomeric alone in solution; also called full-length unlabeled Rad51) MSQVQEQHISESQLQYGNGSLMSTVPADLSQSVVDGNGNGSSEDIEATNGSGDGGGLQEQAEAQGEMEDEAYDEAALGSFVPIEKLQVNGITMADVKKLRESGLHTAEAVAYAPRKDLLEIKGISEAKADKLLNEAARLVPMGFVTAADFHMRRSELICLTTGSKNLDTLLGGGVETGSITELFGEFRTGKSQLCHTLAVTCQIPLDIGGGEGKCLYIDTEGTFRPVRLVSIAQRFGLDPDDALNNVAYARAYNADHQLRLLDAAAQMMSESRFSLIVVDSVMALYRTDFSGRGELSARQMHLAKFMRALQRLADQFGVAVVVTNQVVAQVDGGMAFNPDPKKPIGGNIMAHSSTTRLGFKKGKGCQRLCKVVDSPCLPEAECVFAIYEDGVGDPREEDE | 1 |
